Laboratory results taken from the supplement of paper PMC10567573.

B1: ANKRD40 (parent)
chain: VRIQNPSLRENDFIEIELDRQELT

Variants of: B1
Assay: protein stability index of a GFP-peptide fusion (GPS, HEK-293T) (PSI 1-6); higher = more stable
Details: c terminus: a fixed tail appended
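Also: lentivirally expressed fusions sorted by FACS into six bins by GFP to DsRed ratio, PSI derived from sequencing read proportions per bin multiplied by bin number.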

| Variant | protein stability index |
| --- | --- |
| VRIQNPSLRENDFIWIELDRQELT [E15W] | 1.97 |
| VRIQNPSLRENDFIYIELDRQELT [E15Y] | 2.04 |
| VRIQNPSLRENDFIEAELDRQELT [I16A] | 4.19 |
| VRIQNPSLRENDFIECELDRQELT [I16C] | 4.09 |
| VRIQNPSLRENDFIEDELDRQELT [I16D] | 5 |
| VRIQNPSLRENDFIEEELDRQELT [I16E] | 4.8 |
| VRIQNPSLRENDFIEFELDRQELT [I16F] | 2.83 |
| VRIQNPSLRENDFIEGELDRQELT [I16G] | 4.55 |
| VRIQNPSLRENDFIEHELDRQELT [I16H] | 4.59 |
| VRIQNPSLRENDFIEKELDRQELT [I16K] | 4.69 |
| VRIQNPSLRENDFIELELDRQELT [I16L] | 2.65 |
| VRIQNPSLRENDFIEMELDRQELT [I16M] | 3.49 |
| VRIQNPSLRENDFIENELDRQELT [I16N] | 5.11 |
| VRIQNPSLRENDFIEPELDRQELT [I16P] | 4.67 |
| VRIQNPSLRENDFIEQELDRQELT [I16Q] | 4.68 |
| VRIQNPSLRENDFIERELDRQELT [I16R] | 4.75 |
| VRIQNPSLRENDFIESELDRQELT [I16S] | 4.47 |
| VRIQNPSLRENDFIETELDRQELT [I16T] | 4.44 |
| VRIQNPSLRENDFIEVELDRQELT [I16V] | 3.49 |
| VRIQNPSLRENDFIEWELDRQELT [I16W] | 2.89 |
| VRIQNPSLRENDFIEYELDRQELT [I16Y] | 3.15 |
| VRIQNPSLRENDFIEIALDRQELT [E17A] | 2.47 |
| VRIQNPSLRENDFIEICLDRQELT [E17C] | 1.65 |
| VRIQNPSLRENDFIEIDLDRQELT [E17D] | 2.7 |

| Variant | protein stability index |
| --- | --- |
| VRIQNPSLRENDFIEIFLDRQELT [E17F] | 1.93 |
| VRIQNPSLRENDFIEIGLDRQELT [E17G] | 3.22 |
| VRIQNPSLRENDFIEIHLDRQELT [E17H] | 2.62 |
| VRIQNPSLRENDFIEIILDRQELT [E17I] | 1.97 |
| VRIQNPSLRENDFIEIKLDRQELT [E17K] | 2.27 |
| VRIQNPSLRENDFIEILLDRQELT [E17L] | 1.98 |
| VRIQNPSLRENDFIEIMLDRQELT [E17M] | 1.81 |
| VRIQNPSLRENDFIEINLDRQELT [E17N] | 2.66 |
| VRIQNPSLRENDFIEIPLDRQELT [E17P] | 3.44 |
| VRIQNPSLRENDFIEIQLDRQELT [E17Q] | 1.96 |
| VRIQNPSLRENDFIEIRLDRQELT [E17R] | 2.14 |
| VRIQNPSLRENDFIEISLDRQELT [E17S] | 2.15 |
| VRIQNPSLRENDFIEITLDRQELT [E17T] | 1.86 |
| VRIQNPSLRENDFIEIVLDRQELT [E17V] | 1.35 |
| VRIQNPSLRENDFIEIWLDRQELT [E17W] | 1.85 |
| VRIQNPSLRENDFIEIYLDRQELT [E17Y] | 2.22 |
| VRIQNPSLRENDFIEIEADRQELT [L18A] | 4.2 |
| VRIQNPSLRENDFIEIECDRQELT [L18C] | 3.61 |
| VRIQNPSLRENDFIEIEDDRQELT [L18D] | 4.8 |
| VRIQNPSLRENDFIEIEEDRQELT [L18E] | 5.04 |
| VRIQNPSLRENDFIEIEFDRQELT [L18F] | 2.12 |
| VRIQNPSLRENDFIEIEGDRQELT [L18G] | 4.38 |
| VRIQNPSLRENDFIEIEHDRQELT [L18H] | 4.48 |
| VRIQNPSLRENDFIEIEIDRQELT [L18I] | 2.01 |

| Variant | protein stability index |
| --- | --- |
| VRIQNPSLRENDFIEIEKDRQELT [L18K] | 4.62 |
| VRIQNPSLRENDFIEIEMDRQELT [L18M] | 3.3 |
| VRIQNPSLRENDFIEIENDRQELT [L18N] | 4.72 |
| VRIQNPSLRENDFIEIEPDRQELT [L18P] | 4.35 |
| VRIQNPSLRENDFIEIEQDRQELT [L18Q] | 4.7 |
| VRIQNPSLRENDFIEIERDRQELT [L18R] | 4.37 |
| VRIQNPSLRENDFIEIESDRQELT [L18S] | 4.81 |
| VRIQNPSLRENDFIEIETDRQELT [L18T] | 4.51 |
| VRIQNPSLRENDFIEIEVDRQELT [L18V] | 2.85 |
| VRIQNPSLRENDFIEIEWDRQELT [L18W] | 1.82 |
| VRIQNPSLRENDFIEIEYDRQELT [L18Y] | 3.03 |
| VRIQNPSLRENDFIEIELARQELT [D19A] | 1.93 |
| VRIQNPSLRENDFIEIELCRQELT [D19C] | 1.89 |
| VRIQNPSLRENDFIEIELERQELT [D19E] | 2.8 |
| VRIQNPSLRENDFIEIELFRQELT [D19F] | 1.56 |
| VRIQNPSLRENDFIEIELGRQELT [D19G] | 1.8 |
| VRIQNPSLRENDFIEIELHRQELT [D19H] | 1.69 |
| VRIQNPSLRENDFIEIELIRQELT [D19I] | 1.91 |
| VRIQNPSLRENDFIEIELKRQELT [D19K] | 2.24 |
| VRIQNPSLRENDFIEIELLRQELT [D19L] | 2.22 |
| VRIQNPSLRENDFIEIELMRQELT [D19M] | 1.65 |
| VRIQNPSLRENDFIEIELNRQELT [D19N] | 1.94 |
| VRIQNPSLRENDFIEIELPRQELT [D19P] | 2.65 |
| VRIQNPSLRENDFIEIELQRQELT [D19Q] | 2.42 |

| Variant | protein stability index |
| --- | --- |
| VRIQNPSLRENDFIEIELRRQELT [D19R] | 2.41 |
| VRIQNPSLRENDFIEIELSRQELT [D19S] | 1.92 |
| VRIQNPSLRENDFIEIELTRQELT [D19T] | 1.94 |
| VRIQNPSLRENDFIEIELVRQELT [D19V] | 1.92 |
| VRIQNPSLRENDFIEIELWRQELT [D19W] | 1.54 |
| VRIQNPSLRENDFIEIELYRQELT [D19Y] | 1.83 |
| VRIQNPSLRENDFIEIELDAQELT [R20A] | 2.31 |
| VRIQNPSLRENDFIEIELDCQELT [R20C] | 2.12 |
| VRIQNPSLRENDFIEIELDDQELT [R20D] | 2.75 |
| VRIQNPSLRENDFIEIELDEQELT [R20E] | 2.42 |
| VRIQNPSLRENDFIEIELDFQELT [R20F] | 2.96 |
| VRIQNPSLRENDFIEIELDGQELT [R20G] | 2.56 |
| VRIQNPSLRENDFIEIELDHQELT [R20H] | 2.32 |
| VRIQNPSLRENDFIEIELDIQELT [R20I] | 2.82 |
| VRIQNPSLRENDFIEIELDKQELT [R20K] | 2.75 |
| VRIQNPSLRENDFIEIELDLQELT [R20L] | 2.81 |
| VRIQNPSLRENDFIEIELDMQELT [R20M] | 2.92 |
| VRIQNPSLRENDFIEIELDNQELT [R20N] | 2.77 |
| VRIQNPSLRENDFIEIELDPQELT [R20P] | 1.76 |
| VRIQNPSLRENDFIEIELDQQELT [R20Q] | 2.57 |
| VRIQNPSLRENDFIEIELDSQELT [R20S] | 2.08 |
| VRIQNPSLRENDFIEIELDTQELT [R20T] | 1.78 |
